From doi:10.1101/2023.10.16.562450 (bioRxiv, 2023)
Several values for one entry are separate records, joined by “and”; a condition that tells them apart may be missing. Equal entries are not always repeated.

B1: mAb 4F10 (IgG) (antibody, V domains shown)
VH: EVQLLESGPGLVKPSQTLSLTCTVSGGSISSGGYYWSWIRQHPGKGLEWIGYIYYSGSTYYNPSLKSRVAMSVDTSKNQFSLTLSSVTAADTAVYYCARAIDNFYDNSIWGQGTLVTVSS
VL: DIQMTQSPSSLSASVGDRVTIACRASQSITNFLNWYQQKPGKAPKLLIYAVSNLQSGVPSRFSGSGSGTDFTLTISSVRPEDFATYFCQQSYSPPYTFGQGTKVDIK
B2: mAb 3G2 (IgG) (antibody, V domains shown)
VH: EVQLLESGGGLIQPGGSLRLSCAASGLTVSNNYMNWVRQAPGKGLEWVSIIYSSGSTYYADSVKGRFTISRDTRKNTLYLQMHSLRVEDTAVYYCARERGWLDYWGQGTLVTVSS
VL: VIWMTQSPSSLSASVGDRVTITCRASQSVSSHLNWYQQKPGKAPKLLIYAVSSLQSGVPSRFSGGDSGTDFTLTIASLQPEDFATYYCQQTYTIPRTFGQGTKVEIK
B3: mAb 14G5 (IgG) (antibody, V domains shown)
VH: QVQLVQSGAEVKKPGESLKISCKGSGYSFTSYWIGWVRQMPGKGLEWMGIIYPGDSDTRYSPSFQGQVTMSADRSISTAYLQWSSLKASDTAMYYCARSNVDGSTDYWGQGTLVTVSS
VL: SYELTQPPSVSVSPGQTARITCSGDALPKQYAFWYQQKPGQAPVLVIYKDSERPSGIPERFSGSSSGTTVTLTISGVQAEDEADYYCQSADSSDTYVPYVFGTGTKVTVL
B4: mAb 4B8 (IgG) (antibody, V domains shown)
VH: EVQLVESGGGLIQPGGSLRLSCAASGFTISSKYMSWVRQAPGKGLEWVSIIYSSGSTYYADSVKGRFTISRDISKNTLYLQMNSLRAEDTAVYYCASLGSGSAFGYWGQGTLVTVSS
VL: DIVMTQSPSSVSASVGDRVTITCRASQGISTWLAWYQQKPGKAPRLLIYAASSLQSGVPSRFSGSGSGTDFTLTISSLQPEDFATYYCQQANSFPFTFGPGTKVEIK
B5: mAb 2E11 (IgG) (antibody, V domains shown)
VH: SVELIESGGGVVQPGRSLRLSCAASGFTFSNYAMHWVRQAPGKGLEWVAFISYDGSNKYYADSVKGRFTISRDNSKNTLSLQMNSLRAEDTALYYCARVFNGYEGDYWGQGTLVTVSS
VL: LPVLTQPPSVSVSPGQTARITCSGDALPKKYAYWYQQKSGQAPVLVIYEDSKRPSGIPERFSGSSSGTMATLTISGAQVEDEADYYCYSTDSSGNLYVFGTGTKVTVL
B6: Fab 3G2 (Fab, V domains shown)
VH: B2 VH
VL: B2 VL
B7: Fab 14G5 (Fab, V domains shown)
VH: B3 VH
VL: B3 VL
B8: Fab 4B8 (Fab, V domains shown)
VH: B4 VH
VL: B4 VL
B9: Fab 4F10 (Fab, V domains shown)
VH: B1 VH
VL: B1 VL
B10: Fab 2E11 (Fab, V domains shown)
VH: B5 VH
VL: B5 VL

Target: recombinant ZIKV sNS1 (full-length ZIKV NS1, residues 3-352, GZ02 strain) (Zika virus (GZ02 strain))
Test: negative staining EM

Row | Molecule | stoichiometry N
1 | recombinant ZIKV sNS1 (full-length ZIKV NS1, residues 3-352, GZ02 strain) (natural protein) | 4

Target: DENV2 NS1 (Dengue virus 2, strain ; …, UniProt P29990)
Sequence (P29990 776-1127): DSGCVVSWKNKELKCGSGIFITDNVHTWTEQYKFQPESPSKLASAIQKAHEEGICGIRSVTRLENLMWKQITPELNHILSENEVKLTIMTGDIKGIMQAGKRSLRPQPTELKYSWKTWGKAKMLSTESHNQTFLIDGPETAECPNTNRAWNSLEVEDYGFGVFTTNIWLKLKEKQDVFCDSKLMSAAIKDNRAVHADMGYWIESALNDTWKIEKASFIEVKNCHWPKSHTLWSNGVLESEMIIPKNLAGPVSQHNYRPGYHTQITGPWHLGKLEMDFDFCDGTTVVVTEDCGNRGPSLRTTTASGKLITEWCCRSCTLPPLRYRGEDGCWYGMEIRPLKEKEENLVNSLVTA
Test: ELISA

Row | Molecule | binding result
2 | B1 | binds

Target: DENV4 NS1 (Dengue virus 4, strain ; …, UniProt P09866)
Sequence (P09866 775-1126): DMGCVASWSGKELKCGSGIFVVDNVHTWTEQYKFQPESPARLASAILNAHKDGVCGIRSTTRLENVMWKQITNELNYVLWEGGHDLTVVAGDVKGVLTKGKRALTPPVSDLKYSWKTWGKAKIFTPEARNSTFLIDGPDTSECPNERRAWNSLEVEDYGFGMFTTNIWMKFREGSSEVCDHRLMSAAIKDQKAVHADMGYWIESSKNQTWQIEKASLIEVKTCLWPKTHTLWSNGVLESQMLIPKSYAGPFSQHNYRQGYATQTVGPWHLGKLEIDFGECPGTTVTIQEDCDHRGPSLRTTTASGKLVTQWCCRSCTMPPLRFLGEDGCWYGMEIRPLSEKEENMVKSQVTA
Test: ELISA

Row | Molecule | binding result
3 | B1 | binds

Target: ZIKV-derived sNS1 (Zika virus, strain ; stand-in …, UniProt A0A146CJG7)
Test: ELISA

Row | Molecule | Kd
4 | B2 | 0.12 ± 0.02 nM
5 | B3 | 0.15 ± 0.03 nM
6 | B4 | 0.8 ± 0.33 nM
7 | B1 | 0.06 ± 0.01 nM
8 | B5 | 0.22 ± 0.04 nM

Target: cell-surface ZIKV NS1 (Zika virus, strain ; stand-in …, UniProt A0A146CJG7)
Test: flow cytometry on cells

Row | Molecule | percentage of cell staining at 10 ug/ml
9 | B2 | 76%
10 | B3 | 63%
11 | B4 | 70%
12 | B1 | 58%
13 | B5 | 59%

Target: recombinant ZIKV sNS1 (full-length ZIKV NS1, residues 3-352, GZ02 strain) (Zika virus, strain GZ02, UniProt A0A146CJG7, strain)
Test: cryo-EM structure

Row | Molecule | stoichiometry N
14 | B6 | 1 ratio Fab to NS1 and 4 copies of Fab fragment for each NS1 tetramer
15 | B7 | 1 ratio Fab to NS1
16 | B8 | 1 ratio Fab to NS1 and 4 copies of Fab fragment for each NS1 tetramer
17 | B9 | 1 ratio Fab to NS1
18 | B10 | 1 ratio Fab to NS1
